Molecular target: T1, VEGFR-3 expressed in primary human osteoblasts (human, UniProt P35916 25-1363)
T1 construct: whole, on cells; Endogenous receptor of the cells; also called vascular endothelial growth factor receptor-3
Assay: receptor auto-phosphorylation in primary human osteoblasts treated with 25 ng/ml VEGF-D
Experimental: Moreover osteoblasts were treated with VEGF-D and the whole cell lisates were immunoprecipitated with an antibody recognizing VEGFR-3 C-terminus (Santa Cruz Biotechnology) and immunoblotted with anti-phosphotyrosine antibodies (Santa Cruz Biotechnology).
Cells were stimulated for 30 min with 25 ng/ml VEGF-D at 37° C., washed with ice-cold PBS containing 0.1 mM Na₃VO₄, and lysed in 1 ml of lysis buffer (50 mM Hepes, pH 7.4, 150 mM NaCl, 1% Triton-X 100, 1.5 mM MgCl₂, 1 mM EGTA, 10 mM NaH₂PO₄, 100 mM NaF, 10 mM DTT, 1 mM Na₃VO₄, protease inhibitors, Sigma Chemical). Cells lysates were incubated on ice for 10 min, centrifuged at 10,000×g for 15 min, and the supernatants were incubated with anti-VEGFR-3 antibodies.

T1 sequence (P35916 25-1363): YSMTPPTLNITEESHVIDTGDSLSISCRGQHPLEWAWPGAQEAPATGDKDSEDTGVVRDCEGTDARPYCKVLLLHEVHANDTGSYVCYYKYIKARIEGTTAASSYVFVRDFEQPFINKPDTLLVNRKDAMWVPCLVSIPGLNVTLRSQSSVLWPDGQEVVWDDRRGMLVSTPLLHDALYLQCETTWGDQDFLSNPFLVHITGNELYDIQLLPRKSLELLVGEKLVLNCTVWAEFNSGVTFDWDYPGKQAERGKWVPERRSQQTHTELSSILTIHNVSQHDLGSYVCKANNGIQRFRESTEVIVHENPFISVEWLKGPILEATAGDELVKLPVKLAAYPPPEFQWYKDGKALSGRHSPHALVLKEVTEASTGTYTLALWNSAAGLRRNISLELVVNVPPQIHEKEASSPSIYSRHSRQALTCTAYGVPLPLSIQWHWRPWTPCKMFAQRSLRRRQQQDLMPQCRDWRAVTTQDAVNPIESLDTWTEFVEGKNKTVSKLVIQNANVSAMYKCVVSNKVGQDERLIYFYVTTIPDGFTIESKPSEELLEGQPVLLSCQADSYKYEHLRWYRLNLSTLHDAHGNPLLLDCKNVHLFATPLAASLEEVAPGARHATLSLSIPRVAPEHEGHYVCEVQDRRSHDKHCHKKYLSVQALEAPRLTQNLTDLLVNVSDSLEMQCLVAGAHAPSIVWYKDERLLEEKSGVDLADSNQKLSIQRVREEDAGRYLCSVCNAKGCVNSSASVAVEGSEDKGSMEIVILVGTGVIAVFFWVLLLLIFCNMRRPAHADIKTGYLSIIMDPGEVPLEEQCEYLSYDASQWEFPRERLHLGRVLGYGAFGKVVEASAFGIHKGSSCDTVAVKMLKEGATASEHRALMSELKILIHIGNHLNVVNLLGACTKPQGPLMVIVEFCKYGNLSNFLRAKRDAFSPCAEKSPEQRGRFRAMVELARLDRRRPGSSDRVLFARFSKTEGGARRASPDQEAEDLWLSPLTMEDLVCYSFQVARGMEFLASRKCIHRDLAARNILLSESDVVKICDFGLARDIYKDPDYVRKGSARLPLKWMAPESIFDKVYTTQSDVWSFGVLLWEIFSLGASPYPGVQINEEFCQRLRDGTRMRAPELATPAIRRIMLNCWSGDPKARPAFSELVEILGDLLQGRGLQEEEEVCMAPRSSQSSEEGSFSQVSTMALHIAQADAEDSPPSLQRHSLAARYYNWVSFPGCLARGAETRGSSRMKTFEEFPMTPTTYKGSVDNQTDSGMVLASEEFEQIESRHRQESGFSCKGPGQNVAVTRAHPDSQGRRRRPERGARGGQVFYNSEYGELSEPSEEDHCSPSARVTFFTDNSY

B1: recombinant human VEGF-D fragment (amino acids 90 to 203), non covalent dimer, expressed in E. coli (ligand, UniProt O43915 90-203, looked up)
chain: AATFYDIETLKVIDEEWQRTQCSPRETCVEVASELGKSTNTFFKPPCVNVFRCGGCCNEESLICMNTSTSYISKQLFEISVPLTSVPELVPVKVANHTGCKCLPTAPRHPYSII
notes: range 90-203; this protein was used for the osteoblast experiments; also called recombinant VEGF-D; VEGF-D fragment comprising aa 93-203; not shown: tag from vector pET-22b used for Ni2+ IMAC / His-TRAP purification
binding result: binds

Source: patent US20090214495A1 (published 2009)
